Laboratory results taken from patent US20220275088A1.

Experiments:
[1] = biological target: human PD-1 on cells (transfected Expi293 cells, PHA-cultured T cells, cells of the Promega PD1-PDL1 bioassay, T cells of the MLR) (human) (UniProt Q15116); test: cell-based or functional assay
[2] = biological target: soluble PD-1 (biotinylated PD-1; expi293 expressed soluble PD1-avi) (human) (UniProt Q15116); test: method not named at the list; Octet (BLI) on biotinylated PD-1 by context
[3] = biological target: soluble PD-1 (biotinylated PD-1; expi293 expressed soluble PD1-avi) (human) (UniProt Q15116); test: Octet (BLI)

Sequence of soluble PD-1 (biotinylated PD-1; expi293 expressed soluble PD1-avi) (human) (Q15116 25-170): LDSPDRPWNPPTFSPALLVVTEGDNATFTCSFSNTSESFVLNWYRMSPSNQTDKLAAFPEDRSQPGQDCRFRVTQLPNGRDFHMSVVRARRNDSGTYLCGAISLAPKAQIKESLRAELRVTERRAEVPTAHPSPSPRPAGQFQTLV
Sequence of human PD-1 on cells (transfected Expi293 cells, PHA-cultured T cells, cells of the Promega PD1-PDL1 bioassay, T cells of the MLR) (human) (Q15116 25-288): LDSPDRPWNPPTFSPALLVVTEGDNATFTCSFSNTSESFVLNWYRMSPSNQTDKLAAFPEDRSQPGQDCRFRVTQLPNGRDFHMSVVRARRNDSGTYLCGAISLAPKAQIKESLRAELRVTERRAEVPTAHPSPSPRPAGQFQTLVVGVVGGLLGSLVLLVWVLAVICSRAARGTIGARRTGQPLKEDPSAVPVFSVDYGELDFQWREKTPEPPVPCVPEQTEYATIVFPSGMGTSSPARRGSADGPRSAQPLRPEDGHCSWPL

EC50 against Nivo, Promega PD1-PDL1 bioassay (fold of the EC50 of Nivo) [1]	Kd [2] [nM]	Kd [3] [nM]	koff [3] [s⁻¹]	kon [3] [M⁻¹ s⁻¹]	Binder
1.75	1	–	–	–	P4-B3 minibody (scFv-Fc) (Fc fusion, part only; not given: Hinge, Fc, domain order, not shown: another chain or arm of the molecule; a dimerising Fc or GST; small tags and cut ends) VH: QVQLVQSGGGLVQPGRSLRLSCAASGFTFDDYAMHWVRQAPGKGLEWVSGISWNSGSIGYADSVKGRFTVSRDNAKNSLYLQMNSLRAEDTAVYYCASDYGDKYYYYGMDVWGKGTTVTVSS VL: QPGLTQPPSASGTPGQRVTISCSGSSSNIGSNTVNWYQQFPGKAPKLLIFNDNQRPSGVPDRFSASKSGTSASLAISGLQSEDEADYYCAAWDGGLNGRGVFGGGTKLTVL
–	–	0.94	6.45e-05	68500	P4-B3 scFv (scFv, part only; not given: Linker, domain order, tag, V domains shown, not shown: another chain or arm of the molecule; small tags and cut ends) VH: QVQLVQSGGGLVQPGRSLRLSCAASGFTFDDYAMHWVRQAPGKGLEWVSGISWNSGSIGYADSVKGRFTVSRDNAKNSLYLQMNSLRAEDTAVYYCASDYGDKYYYYGMDVWGKGTTVTVSS VL: QPGLTQPPSASGTPGQRVTISCSGSSSNIGSNTVNWYQQFPGKAPKLLIFNDNQRPSGVPDRFSASKSGTSASLAISGLQSEDEADYYCAAWDGGLNGRGVFGGGTKLTVL
